Assay results from patent publication US20140087995A1 (published 2014).
Numbered stars: 1 amine (or outer) side, 2 acyl side, 3 side chain; on linkers, the order of the positions; unused ones are H or OH. Bridge positions count the residues as written; N and C are the ends. Side chains are listed from the residue outwards. Ends that are not written are not given here. * marks the point of attachment. C20 diacid = O=C(O)CCCCCCCCCCCCCCCCCCC(=O)*; γGlu = O=C(O)[C@H](CCC(=O)[*:2])N[*:1]; AEEA = NCCOCCOCC(=O)O

T1: human calcitonin receptor (human, UniProt P30988 25-474)
T1 sequence (looked up): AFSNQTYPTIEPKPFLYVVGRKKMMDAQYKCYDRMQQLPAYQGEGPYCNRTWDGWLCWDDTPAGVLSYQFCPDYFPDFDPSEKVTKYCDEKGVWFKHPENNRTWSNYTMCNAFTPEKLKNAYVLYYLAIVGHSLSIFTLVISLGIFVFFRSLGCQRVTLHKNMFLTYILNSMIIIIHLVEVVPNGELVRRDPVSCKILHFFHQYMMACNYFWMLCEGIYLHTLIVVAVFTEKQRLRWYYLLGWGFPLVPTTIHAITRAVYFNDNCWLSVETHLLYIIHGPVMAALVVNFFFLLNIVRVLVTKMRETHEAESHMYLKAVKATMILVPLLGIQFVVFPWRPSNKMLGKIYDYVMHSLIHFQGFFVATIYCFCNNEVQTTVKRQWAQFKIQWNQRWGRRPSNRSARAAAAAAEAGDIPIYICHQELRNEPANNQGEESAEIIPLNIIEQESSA

T2: human amylin receptor (amylin 3(a) receptor: human calcitonin receptor co-expressed with RAMP-3) (human, UniProt P30988 25-474; O60896 24-148, limits assumed)
T2 sequence (looked up) 1: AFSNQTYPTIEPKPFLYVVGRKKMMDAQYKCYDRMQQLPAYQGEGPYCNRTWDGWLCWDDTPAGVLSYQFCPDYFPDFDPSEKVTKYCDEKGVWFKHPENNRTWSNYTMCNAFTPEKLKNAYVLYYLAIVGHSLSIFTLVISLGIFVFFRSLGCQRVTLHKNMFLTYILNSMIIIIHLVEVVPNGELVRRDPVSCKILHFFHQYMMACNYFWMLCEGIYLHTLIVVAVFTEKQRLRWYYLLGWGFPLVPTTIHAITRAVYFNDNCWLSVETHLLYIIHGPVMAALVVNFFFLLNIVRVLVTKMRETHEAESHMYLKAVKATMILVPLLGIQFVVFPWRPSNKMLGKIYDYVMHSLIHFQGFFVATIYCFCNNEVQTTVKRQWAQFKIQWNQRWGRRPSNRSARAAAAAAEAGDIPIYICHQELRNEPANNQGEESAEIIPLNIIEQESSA
T2 sequence (looked up) 2: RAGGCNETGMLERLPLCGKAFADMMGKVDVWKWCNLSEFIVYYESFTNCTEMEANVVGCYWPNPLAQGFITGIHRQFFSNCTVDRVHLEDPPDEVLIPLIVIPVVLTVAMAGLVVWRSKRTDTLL


Legend:
[1] = biological target: T1, human calcitonin receptor; experiment: cell-based or functional assay
[2] = biological target: T2, human amylin receptor (amylin 3(a) …); experiment: cell-based or functional assay

Row | Binder | hCTR funct. EC50 [1] [nM] | hAmylin-R funct. EC50 [2] [nM]
1 | K([AEEA-γGlu-C20 diacid])CNTATCATQRLAAFLRHSSPNFGAIPSSTPVGSNTY-NH2 (disulfide 2-7; N-terminus assumed; SMILES CC[C@H](C)[C@H](NC(=O)[C@H](C)NC(=O)CNC(=O)[C@H](Cc1ccccc1)NC(=O)[C@H](CC(N)=O)NC(=O)[C@@H]1CCCN1C(=O)[C@H](CO)NC(=O)[C@H](CO)NC(=O)[C@H](Cc1c[nH]cn1)NC(=O)[C@H](CCCNC(=N)N)NC(=O)[C@H](CC(C)C)NC(=O)[C@H](Cc1ccccc1)NC(=O)[C@H](C)NC(=O)[C@H](C)NC(=O)[C@H](CC(C)C)NC(=O)[C@H](CCCNC(=N)N)NC(=O)[C@H](CCC(N)=O)NC(=O)[C@@H](NC(=O)[C@H](C)NC(=O)[C@@H]1CSSC[C@H](NC(=O)[C@@H](N)CCCCNC(=O)COCCOCCNC(=O)CC[C@H](NC(=O)CCCCCCCCCCCCCCCCCCC(=O)O)C(=O)O)C(=O)N[C@@H](CC(N)=O)C(=O)N[C@@H]([C@@H](C)O)C(=O)N[C@@H](C)C(=O)N[C@@H]([C@@H](C)O)C(=O)N1)[C@@H](C)O)C(=O)N1CCC[C@H]1C(=O)N[C@@H](CO)C(=O)N[C@@H](CO)C(=O)N[C@H](C(=O)N1CCC[C@H]1C(=O)N[C@H](C(=O)NCC(=O)N[C@@H](CO)C(=O)N[C@@H](CC(N)=O)C(=O)N[C@H](C(=O)N[C@@H](Cc1ccc(O)cc1)C(N)=O)[C@@H](C)O)C(C)C)[C@@H](C)O, also called compound 72) | 4.76 | 0.106
2 | K([AEEA-γGlu-C20 diacid])CNTATCATQRLARFLRHSSPNFGAIPSSTPVGSNTY-NH2 (disulfide 2-7; N-terminus assumed; SMILES CC[C@H](C)[C@H](NC(=O)[C@H](C)NC(=O)CNC(=O)[C@H](Cc1ccccc1)NC(=O)[C@H](CC(N)=O)NC(=O)[C@@H]1CCCN1C(=O)[C@H](CO)NC(=O)[C@H](CO)NC(=O)[C@H](Cc1c[nH]cn1)NC(=O)[C@H](CCCNC(=N)N)NC(=O)[C@H](CC(C)C)NC(=O)[C@H](Cc1ccccc1)NC(=O)[C@H](CCCNC(=N)N)NC(=O)[C@H](C)NC(=O)[C@H](CC(C)C)NC(=O)[C@H](CCCNC(=N)N)NC(=O)[C@H](CCC(N)=O)NC(=O)[C@@H](NC(=O)[C@H](C)NC(=O)[C@@H]1CSSC[C@H](NC(=O)[C@@H](N)CCCCNC(=O)COCCOCCNC(=O)CC[C@H](NC(=O)CCCCCCCCCCCCCCCCCCC(=O)O)C(=O)O)C(=O)N[C@@H](CC(N)=O)C(=O)N[C@@H]([C@@H](C)O)C(=O)N[C@@H](C)C(=O)N[C@@H]([C@@H](C)O)C(=O)N1)[C@@H](C)O)C(=O)N1CCC[C@H]1C(=O)N[C@@H](CO)C(=O)N[C@@H](CO)C(=O)N[C@H](C(=O)N1CCC[C@H]1C(=O)N[C@H](C(=O)NCC(=O)N[C@@H](CO)C(=O)N[C@@H](CC(N)=O)C(=O)N[C@H](C(=O)N[C@@H](Cc1ccc(O)cc1)C(N)=O)[C@@H](C)O)C(C)C)[C@@H](C)O, also called compound 64) | 22.9 | 0.378
